Results on nine molecules are retold here after paper PMC12572175.

The target in experiment [1] is Protein A domain D. In words: BLI. Conditions: chain shown with the change;; parent: 35.3 nM.
In experiment [2] the target is Protein A domain D. In words: ELISA. The settings on record: chain shown with the change;; parent: 7.5 nM.

B1: sdAb n501 R95A (protein)
chain: EVQLVESGGGLVQPGGSLRLSCAASDFTFRNYEMSWVRQAPGKGLEWVSSISGSGGSTYYAHSLKGRFTISRDNSKNTLYLQMNSLAAEDTAIYYCARLRDGFNNGFDYWGQGTLVTVSS
For orientation: Kd means the constant that tells how readily two partners part at equilibrium. The EC50 is the concentration that produces a half-maximal response. With B1, in the experiment with Protein A domain D [1], the dissociation constant Kd was found to be 431 nM. In addition, the EC50 with Protein A domain D [2] is 404 nM.

B2: sdAb n501 Y67A (protein)
chain: EVQLVESGGGLVQPGGSLRLSCAASDFTFRNYEMSWVRQAPGKGLEWVSSISGSGGSTYAAHSLKGRFTISRDNSKNTLYLQMNSLRAEDTAIYYCARLRDGFNNGFDYWGQGTLVTVSS
For the molecule B2, in the experiment with Protein A domain D [2], the EC50 came to 162 nM.

B3: sdAb n501 G16A (protein)
chain: EVQLVESGGGLVQPAGSLRLSCAASDFTFRNYEMSWVRQAPGKGLEWVSSISGSGGSTYYAHSLKGRFTISRDNSKNTLYLQMNSLRAEDTAIYYCARLRDGFNNGFDYWGQGTLVTVSS
As for B3, in the experiment with Protein A domain D [1], the dissociation constant Kd stood at 96.3 nM. In the experiment with Protein A domain D [2], the EC50 was found to be 92 nM.

B4: sdAb n501 S79A (protein)
chain: EVQLVESGGGLVQPGGSLRLSCAASDFTFRNYEMSWVRQAPGKGLEWVSSISGSGGSTYYAHSLKGRFTIARDNSKNTLYLQMNSLRAEDTAIYYCARLRDGFNNGFDYWGQGTLVTVSS
With B4, the Kd with Protein A domain D [1] was 372 nM. Also, the EC50 with Protein A domain D [2] was 245 nM.

B5: sdAb n501 T65A (protein)
chain: EVQLVESGGGLVQPGGSLRLSCAASDFTFRNYEMSWVRQAPGKGLEWVSSISGSGGSAYYAHSLKGRFTISRDNSKNTLYLQMNSLRAEDTAIYYCARLRDGFNNGFDYWGQGTLVTVSS
For the molecule B5, in the experiment with Protein A domain D [1], the Kd worked out at 1030 nM.

B6: sdAb n501 K72A (protein)
chain: EVQLVESGGGLVQPGGSLRLSCAASDFTFRNYEMSWVRQAPGKGLEWVSSISGSGGSTYYAHSLAGRFTISRDNSKNTLYLQMNSLRAEDTAIYYCARLRDGFNNGFDYWGQGTLVTVSS
In the case of B6, in the experiment with Protein A domain D [1], the Kd is 1360 nM. In the experiment with Protein A domain D [2], the concentration giving a half-maximal response (EC50) was 685 nM.

B7: sdAb n501 T77A (protein)
chain: EVQLVESGGGLVQPGGSLRLSCAASDFTFRNYEMSWVRQAPGKGLEWVSSISGSGGSTYYAHSLKGRFAISRDNSKNTLYLQMNSLRAEDTAIYYCARLRDGFNNGFDYWGQGTLVTVSS
Consider B7, for which the EC50 with Protein A domain D [2] was determined as 200 nM.

B8: sdAb n501 S18A (protein)
chain: EVQLVESGGGLVQPGGALRLSCAASDFTFRNYEMSWVRQAPGKGLEWVSSISGSGGSTYYAHSLKGRFTISRDNSKNTLYLQMNSLRAEDTAIYYCARLRDGFNNGFDYWGQGTLVTVSS
Turning to B8, the dissociation constant Kd with Protein A domain D [1] was found to be 136 nM. Also, the EC50 in the experiment with Protein A domain D [2] was 709 nM.

B9: sdAb n501 N92A (protein)
chain: EVQLVESGGGLVQPGGSLRLSCAASDFTFRNYEMSWVRQAPGKGLEWVSSISGSGGSTYYAHSLKGRFTISRDNSKNTLYLQMASLRAEDTAIYYCARLRDGFNNGFDYWGQGTLVTVSS
Regarding B9, in the experiment with Protein A domain D [2], the EC50 came to 151 nM.
